Article PMC4307304, “The Oxidative Fermentation of Ethanol in Gluconacetobacter diazotrophicus Is a Two-Step Pathway Catalyzed by a Single Enzyme: Alcohol-Aldehyde Dehydrogenase (ADHa)” (International Journal of Molecular Sciences, 2015)

Tests used:
purified protein = substrate: CCO; assay: purified protein; conditions: quinone analogue Q1 or Q2 100 uM, pH 6.0 phosphate, 30 °C, Triton X-100
[1] = substrate: CC=O; assay: oxygen consumption (Clark electrode), oxidase activity of purified ADHa coupled to ADH-deficient Ga. diazotrophicus membranes; format: biochemical, Gluconacetobacter diazotrophicus; conditions: quinone analogue Q1 or Q2 100 uM, pH 6.0 phosphate, 30 °C, Triton X-100, text b13 calls the acetaldehyde constants of both assays the same, although the table prints 3.7 × 10^−4 for the dehydrogenase
Source text: oxygen consumption (Clark electrode), oxidase activity of purified ADHa coupled to ADH-deficient Ga. diazotrophicus membranes on ADHa

B1: ADHa (Gluconacetobacter diazotrophicus PA1 5) (protein)
chain: ESEFGATGEAIIHADDHPGDWLTYGRTYSEQRYSPLDQINRSNVGNLKLAWYYDLDTNRGQEGTPLIVDGVMYATTNWSKMKALDAATGKLLWAYDPRVPGNIADKGCCDTVNRGAAYWNGKVYFGTFDGRLIALDAKTGKLVWSVNTIPADAALGHQRSYTVDGAPRIAKGRVIIGNGGSEFGARGFVSAFDAETGKLDWRFYTVPNAQNKPDNAPSDAVLMSKAYPTWSPTGAWTTQGGGGTVWDSIVYDPVTDLVYLGVGNGSPWNYKFRSDGKGDNLFLGSIVALKPETGEYVWHFQETPMDQWDYTSVQQIMTLDLPINGQTRHVIVHAPKNGFFYIIDAKTGEFLSGKNYVYVNWASGLDPKTGRPIYNPDALYTLNGKEWYGIPGDLGGHNFAAMAFSPRTGLVYIPAQQVPFLYTSQVGGFKPHPDSWNLGLDMNKVGVTDSPEAKQAFIKDLKGWIVAWDPVKQQEAFRVDHKGPWNGGIVATGGDLLFQGLANGEFHAYDATNGADLFHFAAQSGIIAPPVTYMANGKQYVAVEVGWGGIYPFFLGGLARTSGWTVNHSRVIAFSLDGAAKLPPQNDKGFLPVKPPAQFDGKRTDNGYFEFQTFCAACHGDNAEAGGVLPDLRWSGAIRHQDAFYNVVGRGALTAYGMDRFDASMKPEQIEDIRQFLIKRSNDTYQREVDARKNVDGIPAQ
notes: native, purified from membranes with Triton X-100; heterodimer ~72 kDa (S-I) and ~44 kDa (S-II); with Alcohol dehydrogenase (quinone), cytochrome c subunit
For B1, the Km (purified protein) was 76 µM, the kcat/Km (purified protein) was 1.8e+09 M⁻¹ s⁻¹ and the Km [1] was 1100 µM. For the same protein, the kcat/Km [1] was 1e+08 M⁻¹ s⁻¹.
